Measurements from PMC4837003.
Where two headings read alike, the source gives them in different places.

Assays:
[1] = target: HLA-A*0201 heavy chain with β2-microglobulin; assay: differential scanning fluorimetry
[2] = target: HLA-DR1 (DRA*0101/DRB*010101), soluble extracellular domains (human)
[3] = target: HLA-DR1 (DRA*0101/DRB*010101), soluble extracellular domains (human); remark: listed apart in the source
[4] = target: HLA-A*0201 heavy chain with β2-microglobulin; assay: circular dichroism
[5] = target: HLA-DR1 (DRA*0101/DRB*010101), soluble extracellular domains (human); assay: differential scanning fluorimetry

Row | Molecule | apparent Tm by DSF [1] [°C] | apparent Tm by CD [4] [°C] | also measured
1 | SL9 peptide | 59 | – | –
2 | influenza HA peptide | – | – | apparent Tm by DSF [2]: 82.1 °C; apparent Tm by DSF [3]: 83 °C
3 | NS3_(1406(7N)-1415) peptide | 55.8 | – | –
4 | tyrosinase peptide (TYR) | 67.3 | – | –
5 | IMDQVPFSV [gp100_(209(2M)-217) peptide] | 62.2 | – | –
6 | LGYGFVNYI [HUD peptide] | 44.8 | – | –
7 | LLYGFVNYV [HUD_(87(2L,9V)-95) peptide] | 65.1 | 63 | –
8 | ALGIGILTV [MART-1_(27(2L)-35) peptide] | 59.2 | 51 | half-life of the complex (slowest phase, peptide dissociation) [1]: 6.9 h
9 | YMDGFMSQV [TYR (T5F) peptide] | 61.4 | 63 | –
10 | YRAL [Min4 peptide] | – | – | other [5]: 67.8 °C
